According to paper PMC4231741:

Molecular target: MspJI wild type (modification-dependent restriction endonuclease)
Assay: crystal structure

Substance: MspJI wild type (modification-dependent restriction endonuclease) (enzyme)
- stoichiometry N: 4
